Measurements taken from patent US20230381316A1 (METHODIST HOSPITAL, published 2023).
Numbering of substitutions follows the chain as printed.

B1: anti-PSMA mouse monoclonal antibody #1352 (antibody, IgG2b, V domains shown)
VH: VKLQQSGPELEKPGASVKISCKASGYSFTGYNVNWVKQSNGKSLEWIGNIDPYHGGTTYNQKFEAKATLTVDKSSSTAYMQLKSLTSEDSAVYYCARSSRFDYWGQGTTLTVSS
VL: DIVMTQSHKFMSTSVGDRVNITCKASQDVGTAVAWYQQKPGQSPKFLIYWASTRHTGVPDRFTGSGSGTDFTLTISNVQSEDLADYFCHQYTSYPFTFGSGTKLEMKR
B2: PSMA(444)-CAR (CAR PMC 444, clone 219, VH-linker-VL) (other)
chain: VQLQQSGPELEKPGASVKMSCKASGYSFTGYNVNWVRQNNGKSLEWIGNIDPLHGGTTYNQKFKAKATLTVDRSSSTAYLQLKNLTSEDSAVYYCARSSRFDYWGQGTTLTVSSGGGGSGGGGSGGGGSDIVMTQSHKFMSTSVGDRVNITCKASQDVGTAVAWYQQKPGQSPKLLIYWASTRHTGVPDRFTGSGSGTDFTLTISNVQSEDLADYFCHQFTSYPFTFGSGTSLEMKRTTTPAPRPPTPAPTIASQPLSLRPEACRPAAGGAVHTRGLDFACDIYIWAPLAGTCGVLLLSLVITLYCKRGRKKLLYIFKQPFMRPVQTTQEEDGCSCRFPEEEEGGCELRVKFSRSADAPAYKQGQNQLYNELNLGRREEYDVLDKRRGRDPEMGGKPRRKNPQEGLYNELQKDKMAEAYSEIGMKGERRRGKGHDGLYQGLSTATKDTYDALHMQALPPR
notes: Chimeric antigen receptor (scFv-CD8a TM-4-1BB-CD3zeta) on transduced human T cells; also called PMC444 CAR
B3: PSMA(447)-CAR (CAR PMC 447, clone 1352, VH-linker-VL) (other)
chain: VKLQQSGPELEKPGASVKISCKASGYSFTGYNVNWVKQSNGKSLEWIGNIDPYHGGTTYNQKFEAKATLTVDKSSSTAYMQLKSLTSEDSAVYYCARSSRFDYWGQGTTLTVSSGGGGSGGGGSGGGGSDIVMTQSHKFMSTSVGDRVNITCKASQDVGTAVAWYQQKPGQSPKFLIYWASTRHTGVPDRFTGSGSGTDFTLTISNVQSEDLADYFCHQYTSYPFTFGSGTKLEMKRTTTPAPRPPTPAPTIASQPLSLRPEACRPAAGGAVHTRGLDFACDIYIWAPLAGTCGVLLLSLVITLYCKRGRKKLLYIFKQPFMRPVQTTQEEDGCSCRFPEEEEGGCELRVKFSRSADAPAYKQGQNQLYNELNLGRREEYDVLDKRRGRDPEMGGKPRRKNPQEGLYNELQKDKMAEAYSEIGMKGERRRGKGHDGLYQGLSTATKDTYDALHMQALPPR
notes: Chimeric antigen receptor on transduced human T cells; also called PMC447 CAR
B4: PSMA(448)-CAR (CAR PMC 448, clone 1207, VH-linker-VL) (other)
chain: VKLQQSGPGLVKPSQSLSLTCAVTGYSITSDYAWNWIRKFPGNKLEWMGYISYSGRTTYNPSLESRISITRDTSKNQFFLQLNSVTTEDTATYYCARCYYGSSSRWYGMDYWGRGTSVAVSSGGGGSGGGGSGGGGSIVLTQSPAIMSASPGVKVTMTCRASSSVDSSYLHWYQQKSGASPQVWIYSTSNLASGVPARFSGSGSGTSYSLTISSVEAEDAATYYCQQYSGYPLTFGGGTKLEIKRTTTPAPRPPTPAPTIASQPLSLRPEACRPAAGGAVHTRGLDFACDIYIWAPLAGTCGVLLLSLVITLYCKRGRKKLLYIFKQPFMRPVQTTQEEDGCSCRFPEEEEGGCELRVKFSRSADAPAYKQGQNQLYNELNLGRREEYDVLDKRRGRDPEMGGKPRRKNPQEGLYNELQKDKMAEAYSEIGMKGERRRGKGHDGLYQGLSTATKDTYDALHMQALPPR
notes: Chimeric antigen receptor on transduced human T cells; also called PMC448 CAR
B5: PSMA(7LH)-CAR, derived from antibody #1352 (VL-linker-VH) (other)
chain: DIVMTQSHKFMSTSVGDRVNITCKASQDVGTAVAWYQQKPGQSPKFLIYWASTRHTGVPDRFTGSGSGTDFTLTISNVQSEDLADYFCHQYTSYPFTFGSGTKLEMKRGGGGSGGGGSGGGGSVKLQQSGPELEKPGASVKISCKASGYSFTGYNVNWVKQSNGKSLEWIGNIDPYHGGTTYNQKFEAKATLTVDKSSSTAYMQLKSLTSEDSAVYYCARSSRFDYWGQGTTLTVSSTTTPAPRPPTPAPTIASQPLSLRPEACRPAAGGAVHTRGLDFACDIYIWAPLAGTCGVLLLSLVITLYCKRGRKKLLYIFKQPFMRPVQTTQEEDGCSCRFPEEEEGGCELRVKFSRSADAPAYKQGQNQLYNELNLGRREEYDVLDKRRGRDPEMGGKPRRKNPQEGLYNELQKDKMAEAYSEIGMKGERRRGKGHDGLYQGLSTATKDTYDALHMQALPPR
notes: Chimeric antigen receptor on transduced human T cells
B6: PSMA(6LH)-CAR, derived from antibody #1366 (VL-linker-VH) (other)
chain: TVLTQSPAIMSASPGEKVTMTCRASSSVSSSYLHWYQQKSSASPKLWIYRTSNLASGVPARFSGSGSGTSYSLTISSLEAEDAATYYCQQYSGYPLTFGAGTKLELKRGGGGSGGGGSGGGGSVKLQESGPGLVAPSQSLSITCTVSGFSLTDYGVSWIRQPPGKGLEWLGVIWSDGNTYYNSPLKSRLSINKDNSKSQVFLKMNSLQTDDSAMYYCARHKVYTMDYWGQGTSVTVSSTTTPAPRPPTPAPTIASQPLSLRPEACRPAAGGAVHTRGLDFACDIYIWAPLAGTCGVLLLSLVITLYCKRGRKKLLYIFKQPFMRPVQTTQEEDGCSCRFPEEEEGGCELRVKFSRSADAPAYKQGQNQLYNELNLGRREEYDVLDKRRGRDPEMGGKPRRKNPQEGLYNELQKDKMAEAYSEIGMKGERRRGKGHDGLYQGLSTATKDTYDALHMQALPPR
notes: as for B5
B7: PSMA(446)-CAR (CAR PMC 446, clone 1366, VH-linker-VL) (other)
chain: VKLQESGPGLVAPSQSLSITCTVSGFSLTDYGVSWIRQPPGKGLEWLGVIWSDGNTYYNSPLKSRLSINKDNSKSQVFLKMNSLQTDDSAMYYCARHKVYTMDYWGQGTSVTVSSGGGGSGGGGSGGGGSTVLTQSPAIMSASPGEKVTMTCRASSSVSSSYLHWYQQKSSASPKLWIYRTSNLASGVPARFSGSGSGTSYSLTISSLEAEDAATYYCQQYSGYPLTFGAGTKLELKRTTTPAPRPPTPAPTIASQPLSLRPEACRPAAGGAVHTRGLDFACDIYIWAPLAGTCGVLLLSLVITLYCKRGRKKLLYIFKQPFMRPVQTTQEEDGCSCRFPEEEEGGCELRVKFSRSADAPAYKQGQNQLYNELNLGRREEYDVLDKRRGRDPEMGGKPRRKNPQEGLYNELQKDKMAEAYSEIGMKGERRRGKGHDGLYQGLSTATKDTYDALHMQALPPR
notes: Chimeric antigen receptor on transduced human T cells; also called PMC446 CAR
B8: PSMA(8LH)-CAR, derived from antibody #1207 (VL-linker-VH) (other)
chain: IVLTQSPAIMSASPGVKVTMTCRASSSVDSSYLHWYQQKSGASPQVWIYSTSNLASGVPARFSGSGSGTSYSLTISSVEAEDAATYYCQQYSGYPLTFGGGTKLEIKRGGGGSGGGGSGGGGSVKLQQSGPGLVKPSQSLSLTCAVTGYSITSDYAWNWIRKFPGNKLEWMGYISYSGRTTYNPSLESRISITRDTSKNQFFLQLNSVTTEDTATYYCARCYYGSSSRWYGMDYWGRGTSVAVSSTTTPAPRPPTPAPTIASQPLSLRPEACRPAAGGAVHTRGLDFACDIYIWAPLAGTCGVLLLSLVITLYCKRGRKKLLYIFKQPFMRPVQTTQEEDGCSCRFPEEEEGGCELRVKFSRSADAPAYKQGQNQLYNELNLGRREEYDVLDKRRGRDPEMGGKPRRKNPQEGLYNELQKDKMAEAYSEIGMKGERRRGKGHDGLYQGLSTATKDTYDALHMQALPPR
notes: as for B5
B9: anti-PSMA mouse monoclonal antibody #1207 (antibody, V domains shown)
VH: VKLQQSGPGLVKPSQSLSLTCAVTGYSITSDYAWNWIRKFPGNKLEWMGYISYSGRTTYNPSLESRISITRDTSKNQFFLQLNSVTTEDTATYYCARCYYGSSSRWYGMDYWGRGTSVAVSS
VL: IVLTQSPAIMSASPGVKVTMTCRASSSVDSSYLHWYQQKSGASPQVWIYSTSNLASGVPARFSGSGSGTSYSLTISSVEAEDAATYYCQQYSGYPLTFGGGTKLEIKR
notes: Full-length mouse IgG from a hybridoma
B10: anti-PSMA mouse monoclonal antibody #1366 (antibody, V domains shown)
VH: VKLQESGPGLVAPSQSLSITCTVSGFSLTDYGVSWIRQPPGKGLEWLGVIWSDGNTYYNSPLKSRLSINKDNSKSQVFLKMNSLQTDDSAMYYCARHKVYTMDYWGQGTSVTVSS
VL: B9 VL with I1T, V16E, D29S, G41S, Q45K, V46L, S50R, V78L, G100A, I106L
notes: as for B9
B11: anti-PSMA mouse monoclonal antibody #219 (antibody, V domains shown)
VH: B1 VH with K2Q, I19M, K37R, S39N, Y53L, E64K, K73R, M80L, S84N
VL: B1 VL with F46L, Y91F, K103S
notes: as for B9
B12: anti-PSMA mouse monoclonal antibody #1377 (antibody, V domains shown)
VH: VQLQQPGAALVRPGASVRLSCKASGYSFTYYWMNWVMQRPGQGLEWIGMIHPSDSETRLSQKFRDKATLTVDKSSSTVYMQLNSPTSDDSAVYYCARDGNFPYYALDYWGQGTSVTVSS
VL: DVVLTQAPLSLPVSLGDQASISCRSSQSLEYSNGNTYLHWYLQKPGQSPELLIYTVSNRFSGVPDRFSGSGSGTDFTLKIHRVEAEDLGVYFCSQSTHVPTFGGGTKLEIKR
notes: as for B9

Molecular target: T1, prostate-specific membrane antigen (PSMA) on PSMA-positive prostate cancer cells (LNCaP, VCaP) (human, UniProt Q04609 1-750)
T1 construct: Endogenous PSMA on LNCaP and VCaP cells; also called FOLH1; PSMA antigen on cancer cell surface
Experiment: flow cytometry on mixed PC3 and LNCaP cells, 20 µg antibody, FITC anti-mouse IgG
Procedure: Next, the cells were incubated with FITC anti-mouse IgG secondary antibody (Biolegend, cat #406001), followed by flow cytometric analysis.

T1 sequence (Q04609 whole entry): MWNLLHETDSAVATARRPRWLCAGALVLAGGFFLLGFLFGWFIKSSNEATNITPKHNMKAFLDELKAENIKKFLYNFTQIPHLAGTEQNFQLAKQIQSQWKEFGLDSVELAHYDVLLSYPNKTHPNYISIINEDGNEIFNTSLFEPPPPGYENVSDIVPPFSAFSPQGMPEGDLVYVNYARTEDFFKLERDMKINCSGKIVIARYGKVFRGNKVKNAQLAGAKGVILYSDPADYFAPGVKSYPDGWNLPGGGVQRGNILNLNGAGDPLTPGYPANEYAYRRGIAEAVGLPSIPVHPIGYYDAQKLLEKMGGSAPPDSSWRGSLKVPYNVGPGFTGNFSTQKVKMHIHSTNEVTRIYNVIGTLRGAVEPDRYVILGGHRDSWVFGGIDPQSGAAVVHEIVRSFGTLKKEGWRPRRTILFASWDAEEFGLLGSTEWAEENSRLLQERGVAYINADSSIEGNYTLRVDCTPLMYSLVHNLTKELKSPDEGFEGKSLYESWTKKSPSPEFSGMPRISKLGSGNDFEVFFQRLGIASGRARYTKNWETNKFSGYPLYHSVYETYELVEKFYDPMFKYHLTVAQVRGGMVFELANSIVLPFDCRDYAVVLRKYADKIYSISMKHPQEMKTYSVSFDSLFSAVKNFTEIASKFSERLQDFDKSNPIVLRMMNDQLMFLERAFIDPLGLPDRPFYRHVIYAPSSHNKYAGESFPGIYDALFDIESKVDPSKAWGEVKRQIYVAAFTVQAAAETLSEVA

| binding result | Binder |
| --- | --- |
| binds | B1 |

Molecular target: T2, Fluorescence-labeled PSMA protein (biotin-labelled purified PSMA protein with Alexa Fluor 647 Streptavidin) (human, UniProt Q04609 44-750, biotin label (EZ link Sulfo-NHS-Biotin), incubated with Alexa Fluor 647 Streptavidin)
T2 construct: This is the purified PSMA protein of m9 after labelling; also called fluorescence labeled recombinant PSMA protein; home-made fluorescent probe
Experiment: flow cytometry of CAR T cells with fluorescence labeled recombinant PSMA protein as probe
Text: (A3). In vitro cytotoxicity of PSMA-CAR T cells. Human peripheral blood mononuclear cells (PBMC) were isolated from leukopak following a SOP published by Hanc (HIV/ADIS Network Coordination). T cells including CD4+ and CD8+ T cells were isolated from PBMC with human T cell isolation kit (Miltenyi Biotec). T cells were activated by Dvnabeads human T-Activator CD3/CD28 (ThermoFisher) for 24 hrs, then transduced with lentiviruses expressing PSMA-CARs. Transduced cells were expanded for 8 to 21 days in culture. Flow cytometry was performed to determine the percentage of T cells that express functional CAR. To prepare home-made fluorescent probe, we labeled purified PSMA protein with biotin using EZ link Sulfo-NHS-Biotin (ThermoFisher), then incubated with Alexa Fluor® 647 Streptavidin (BioLegend) to obtain the probe.
For IFNγ induction (FIGS. 14C, 14D)), 4LH-CAR, 7LH-CAR, 5LH-CAR appeared to be the strongest. […] We also tested the in vitro killing on PSMA-positive VCaP cells, PSMA-negative wild type PC3 cells, and PSMA-positive PC3-PSMA stable cells. As anticipated, the PSMA-CAR T cell cytotoxicity IFNγ induction were strictly PSMA-dependent. Moreover, using fluorescence labeled recombinant PSMA protein as probe, flow cytometry analysis was performed on non-transduced and 11 PSMA-CAR T cells.

T2 sequence (Q04609 44-750): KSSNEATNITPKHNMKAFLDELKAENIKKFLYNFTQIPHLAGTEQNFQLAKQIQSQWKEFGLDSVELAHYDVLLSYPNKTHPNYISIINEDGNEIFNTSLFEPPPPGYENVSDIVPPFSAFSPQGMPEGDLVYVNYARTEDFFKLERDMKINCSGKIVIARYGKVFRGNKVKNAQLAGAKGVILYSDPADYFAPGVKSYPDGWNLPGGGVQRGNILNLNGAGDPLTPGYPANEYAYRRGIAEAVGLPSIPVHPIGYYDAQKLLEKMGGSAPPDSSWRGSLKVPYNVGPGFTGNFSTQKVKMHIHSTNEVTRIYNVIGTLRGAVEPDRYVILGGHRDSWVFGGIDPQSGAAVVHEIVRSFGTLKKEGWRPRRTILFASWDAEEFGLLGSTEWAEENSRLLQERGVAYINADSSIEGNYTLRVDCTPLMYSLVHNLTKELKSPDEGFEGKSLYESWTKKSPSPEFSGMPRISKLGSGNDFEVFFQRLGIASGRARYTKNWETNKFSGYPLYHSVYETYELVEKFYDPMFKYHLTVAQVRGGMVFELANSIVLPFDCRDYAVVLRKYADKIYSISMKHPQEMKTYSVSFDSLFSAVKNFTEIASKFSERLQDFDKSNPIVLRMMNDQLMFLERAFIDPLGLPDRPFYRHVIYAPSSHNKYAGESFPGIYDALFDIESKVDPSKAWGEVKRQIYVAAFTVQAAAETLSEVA

| percentage of CAR T cells positive for PSMA binding | Binder |
| --- | --- |
| 47.1% | B2 |
| 3.08% | B3 |
| 2.23% | B4 |
| 35.5% | B5 |
| 17.8% | B6 |
| 19.6% | B7 |
| 16% | B8 |

Molecular target: T1, prostate-specific membrane antigen …
Experiment: flow cytometry on LNCaP cells

| binding result | Binder |
| --- | --- |
| binds | B9 |
| binds | B10 |
| binds | B11 |
| binds | B12 |
